Measurements from publication PMC10899662, “TopBP1 utilises a bipartite GINS binding mode to support genome replication” (Nature Communications, 2024).

Tests used:
GINS complex = experiment: Size exclusion chromatography co-elution with GINS; assay type: binding; settings: Superdex200; 20 µM of each component; 10 mM HEPES pH 7.5, 150 mM NaCl, 0.5 mM TCEP
Method: Recombinant TopBP1 and GINS proteins were mixed in an equimolar ratio to give a final concentration of 20 µM of each component and incubated on ice for at least 30 min prior to application to a Superdex200increase 10 300 column (GE Healthcare, Little Chalfont, UK) equilibrated in 10 mM HEPES pH 7.5, 150 mM NaCl, 0.5 mM TCEP.

[1] = tested on: chromatin-bound replication proteins; experiment: Chromatin mass spectrometry (CHROMASS) from TopBP1-depleted Xenopus egg extracts; assay type: biochemical, Xenopus laevis; settings: mass spectrometry and immunoblotting; 75 min after starting replication, aphidicolin added, TopBP1 6 ng/µl; n = 4 for MS
Method: Fig. 6 GINS binding to TopBP1 is required for the origin firing step of replication. a–c Heat map showing the intensity of chromatin-bound proteins recovered from TopBP1-depleted interphase Xenopus egg extracts supplemented wild type or mutant TopBP1 determined by quantitative mass spectrometry. Chromatin was isolated 75 min after sperm addition. All extracts contained […] aphidicolin and, where indicated, […] geminin. […] For the intensities of all proteins see Supplementary Data 2. b, c Volcano plots highlighting a selection of differentially detected proteins in samples described in (a). Log2 transformed LFQ intensities from four replicates each were analysed by a two-sided Student’s t-test. […] Coomassie staining of the gel part containing histones served as a loading control.
For chromatin isolation, XTopBP1-depleted interphase egg extract was supplemented with 50 µg/ml aphidicolin and aliquoted into 15 µl samples before addition of buffer or recombinant TopBP1 to a final concentration 6 ng/µl. 2.25 µM Xgeminin or buffer were added before incubation for 10 min on ice. To start the replication, 9 ng sperm DNA/µl extract was added and incubated for 75 min at 23 °C. […] For MS analysis, four biological replicates of chromatin pellets were analysed by CHROMASS[45]. […]

B1: TopBP1-BRCT0-5-WT: recombinant TopBP1 amino acids 1–766, strep-tagged (protein)
chain: MSRNDKEPFFVKFLKSSDNSKCFFKALESIKEFQSEEYLQIITEEEALKIKENDRSLYICDPFSGVVFDHLKKLGCRIVGPQVVIFCMHHQRCVPRAEHPVYNMVMSDVTISCTSLEKEKREEVHKYVQMMGGRVYRDLNVSVTHLIAGEVGSKKYLVAANLKKPILLPSWIKTLWEKSQEKKITRYTDINMEDFKCPIFLGCIICVTGLCGLDRKEVQQLTVKHGGQYMGQLKMNECTHLIVQEPKGQKYECAKRWNVHCVTTQWFFDSIEKGFCQDESIYKTEPRPEAKTMPNSSTPTSQINTIDSRTLSDVSNISNINASCVSESICNSLNSKLEPTLENLENLDVSAFQAPEDLLDGCRIYLCGFSGRKLDKLRRLINSGGGVRFNQLNEDVTHVIVGDYDDELKQFWNKSAHRPHVVGAKWLLECFSKGYMLSEEPYIHANYQPVEIPVSHKPESKAALLKKKNSSFSKKDFAPSEKHEQADEDLLSQYENGSSTVVEAKTSEARPFNDSTHAEPLNDSTHISLQEENQSSVSHCVPDVSTITEEGLFSQKSFLVLGFSNENESNIANIIKENAGKIMSLLSRTVADYAVVPLLGCEVEATVGEVVTNTWLVTCIDYQTLFDPKSNPLFTPVPVMTGMTPLEDCVISFSQCAGAEKESLTFLANLLGASVQEYFVRKSNAKKGMFASTHLILKERGGSKYEAAKKWNLPAVTIAWLLETARTGKRADESHFLIENSTKEERSLETEITNGINLNSDTAEHP
modifications: left off: Strep, C-terminal, kept
notes: recombinant TopBP1 amino acids 1–766, strep-tagged
GINS complex
  co-elution with GINS from size exclusion column: co-eluted with the GINS complex
[1]
  chromatin binding of replisome markers / Mcm2-7: Several replisome markers, including GINS and Cdc45, were detected on chromatin
